Source: PMC12046042

What was measured:
Experiment in all cases: SPR
[1] = biological target: FcγRIIa-131H
[2] = biological target: FcγRIIIa-158F
[3] = biological target: FcγRIIa-131R
[4] = biological target: FcγRIIb
[5] = biological target: FcγRI (CD64) extracellular domain (UniProt P12314)
[6] = biological target: FcγRIIIa-158V

FcγRI (CD64) extracellular domain, sequence (P12314 16-292): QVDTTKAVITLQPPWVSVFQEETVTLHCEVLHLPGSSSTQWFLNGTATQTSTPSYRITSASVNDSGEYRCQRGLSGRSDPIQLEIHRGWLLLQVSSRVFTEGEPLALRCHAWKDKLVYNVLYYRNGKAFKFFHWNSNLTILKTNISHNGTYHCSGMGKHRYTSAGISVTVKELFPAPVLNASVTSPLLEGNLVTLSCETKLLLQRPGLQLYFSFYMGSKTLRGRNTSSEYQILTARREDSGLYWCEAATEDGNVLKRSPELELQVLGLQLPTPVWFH

Kd [1] [nM] | Kd [2] [nM] | Kd [3] [nM] | Kd [4] [nM] | Kd [5] [nM] | Kd [6] [nM] | Substance
> 10000 | > 10000 | > 10000 | > 10000 | > 200 | 8900 | Hu IgG4PAA
600 | 1400 | 800 | 4400 | 0.0643 | 200 | Hu IgG1
4100 | 10000 | 1600 | 1600 | 0.472 | 3100 | Hu IgG4P
